Laboratory results: patent US20050009042A1 (AVENTIS PHARMA S A, published 2005)

T1: MT2R-Luc, protein from fusion of the melatonin receptor MT2 with luciferase (UniProt P49286 1-362)
T1 construct: whole, on cells; Control fusion protein; also called melatonin-Luc MT2 receptor
T1 sequence (looked up): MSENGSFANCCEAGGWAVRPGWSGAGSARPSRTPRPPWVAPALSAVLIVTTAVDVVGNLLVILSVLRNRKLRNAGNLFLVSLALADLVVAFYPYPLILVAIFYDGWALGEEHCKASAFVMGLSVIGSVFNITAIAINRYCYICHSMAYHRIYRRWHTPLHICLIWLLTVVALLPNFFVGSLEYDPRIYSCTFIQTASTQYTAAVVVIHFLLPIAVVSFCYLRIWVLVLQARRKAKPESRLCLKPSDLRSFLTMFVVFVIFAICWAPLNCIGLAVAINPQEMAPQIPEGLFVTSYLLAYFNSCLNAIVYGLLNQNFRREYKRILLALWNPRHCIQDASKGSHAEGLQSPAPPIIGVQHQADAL

B1: MYO47-Luc (other)
chain: MAGIKALISLSFGGAIGLMFLMLGCALPIYNKYWPLFVLFFYILSPIPYCIARRLVDDTDAMSNACKELAIFLTTGIVVSAFGLPIVFARAHLIEWGACALVLTGNTVIFATILGFFLVFGSNDDFSWQQW
notes: also called MY047-Rluc; not shown: Renilla luciferase (vector pcDNA3-Rluc)
B2: MYO47-YFP (other)
chain: B1 chain
notes: also called MY047-YFP; not shown: YFP (Topaz, vector pcDNA3-YFP)
B3: OB-RGRP-YFP (other)
chain: MAGVKALVALSFSGAIGLTFLMLGCALEDYGVYWPLFVLIFHAISPIPHFIAKRVTYDSDATSSACRELAYFFTTGIVVSAFGFPVILARVAVIKWGACGLVLAGNAVIFLTIQGFFLIFGRGDDFSWEQW
notes: Expressed in HeLa or HEK cells from pcDNA3-OB-RGRP-YFP; also called OB-RGRP tagged with YFP at its C-terminal tail; OB-RGRP-YFB; not shown: YFP coding region from vector pGFPtpz-N1 (Cytogem-Topaze, Packard)
B4: 6Myc-OB-RGRP (4TM) (other)
chain: B3 chain
notes: not shown: The N-terminal 6xMyc tag (the 6myc fragment of pCDNA3-RSV-6Myc) and its junction
B5: YFP-OB-RGRP (other)
chain: B3 chain
notes: The construction of this plasmid is not described on its own; only the double fusion YFP-OB-RGRP-Luc is; also called OB-RGRP tagged at the N-terminal with YFP; not shown: YFP (Topaz, from pGFPtpz-N1) at the N-terminus
B6: OB-RGRP-Luc (other)
chain: B3 chain
notes: Expressed in cells from pcDNA3-OB-RGRP-Luc; also called OB-RGRP-Rluc; not shown: Renilla luciferase, coding region from vector pRL-CMV (Promega)

Columns and labels:
OB-Rl = experiment: cell-based or functional assay
[1] = target: T2, IR-YFP, protein from fusion of the insulin receptor with YFP (UniProt P06213 28-1382); experiment: BRET in living cells, equimolar coexpression
T2 construct: whole, on cells; Control fusion protein; also called construct of the insulin receptor tagged with YFP; not shown: YFP
Experimental: (§1) 48 h after transfection, the COS-7, HeLa or HEK 293 cells expressing the OB-R fusion proteins were detached and washed in PBS. 1-2×10⁵ cells were distributed into wells of optiplate plates (96-well, Packard Instrument Company, Meriden, Conn.) in the presence or absence of the ligands, and incubated at 25° C. Alternatively, the same procedure was carried out with membranes prepared from the cells expressing the various constructs. The substrate, coelenterazine h (Molecular Probes, Eugene, Oreg.), was added at a final concentration of 5 μmol.L⁻¹ and the readings were carried out with a Fusion™ luminometer/fluorimeter (Packard Instrument Company, Meriden, Conn.), which makes it possible to measure luminescence through two filters (luciferase filter: 485±10 nm; YFP filter: 530±12.5 nm). The BRET ratio was defined as the difference in emission at 530 nm/485 nm of the cells cotransfected with the Luc and YFP fusion proteins and the emission at 530 nm/485 nm of the Luc fusion protein transfected alone into the cells. The results are expressed as milliBRET units (mBU), 1 mBRET corresponding to the values of the differences in the ratios multiplied by 1000.
(§2) We used BRET technology to study a possible interaction between OB-R and OB-RGRP in living cells. An energy transfer was constitutively observed in the cells coexpressing the OB-Rₛ-Luc construct and the OB-RGRP-YFP construct, indicating proximity of the interaction partners (FIG. 7). The same results were obtained in cells coexpressing OB-Rₛ-Luc and the MYO47-YFP construct, and also in the reverse orientation: in cells coexpressing OB-RGRP-Luc and OB-Rₛ-YFP, or in cells coexpressing MYO47-Luc and OB-Rₛ-YFP. The specificity of these interactions was confirmed by the lack of energy transfer between OB-Rₛ-Luc, OB-RGRP-Luc, MYO47-Luc and a construct of the insulin receptor tagged with YFP (Boute et al. (2001) Mol Pharmacol 60, 640-645), and also in the reverse orientation: by the lack of energy transfer between a construct of the insulin receptor tagged with Luc and the OB-Rₛ-YFP, OB-RGRP-YFP and MYO47-YFP construct.

[2] = target: T3, construct of the insulin receptor tagged with Luc (UniProt P06213 28-1382); experiment: BRET in living cells, equimolar coexpression
T3 construct: whole, on cells; Control fusion protein; also called IR-Luc
Experimental: as §1, §2

OB-RGRP-Luc [3] = target: B6; experiment: BRET in living HEK cells; the signal also rises hyperbolically to saturation with the OB-RGRP-YFP/OB-RGRP-Luc ratio
Experimental: (§3) Study of the oligomerization of OB-RGRP in live HEK cells, by BRET technology. FIG. 6a: the fusion proteins indicated were coexpressed at an equimolar ratio, and BRET measurement experiments were carried out. FIG. 6b: constant amounts of the plasmid OB-RGRP-Luc were coexpressed with increasing amounts of the plasmid OB-RGRP-YFP and BRET measurements were carried out. MT2R-Luc, protein from fusion of the melatonin receptor MT2 with luciferase.
as §1, with “The BRET ratio was defined as the difference in emission at 530 nm/485 nm of the cells cotransfected with the Luc and YFP fusion proteins and the emission at 530 nm/485 nm of the Luc fusion protein transfected alone into the cells.” left out, “1000. […]” for “1000.”

[4] = target: T1, MT2R-Luc, protein from fusion of the …; experiment: BRET in living HEK cells, equimolar coexpression
Experimental: as §3
as §1, with “The BRET ratio was defined as the difference in emission at 530 nm/485 nm of the cells cotransfected with the Luc and YFP fusion proteins and the emission at 530 nm/485 nm of the Luc fusion protein transfected alone into the cells.” left out, “1000. […]” for “1000.”

[5] = target: the molecule itself; experiment: SDS-PAGE and anti-YFP immunoblot of HeLa cell lysates, with or without DSP crosslinker; self-association
Experimental: (§4) Study of the oligomerization of OB-RGRP with SDS-PAGE experiments and immunoprecipitations. FIG. 4a: the cells expressing the fusion proteins indicated were treated or not treated with 2 mmol.L⁻¹ dithiobis(succinimidyl propionate) (DSP) in PBS (1×, pH7.4) in order to crosslink the protein complexes. The proteins were separated by SDS-PAGE and the proteins from fusions with YFP were detected using a specific anti-YFP antibody. FIG. 4b: the cells expressing the construct 6Myc-OB-RGRP were solubilized with 1% of digitonin or 5% of SDS and the solubilized material was immunoprecipitated with an anti-myc antibody. The precipitates were subjected to separation by SDS-PAGE and the proteins tagged with myc were detected with an anti-myc antibody.
(§5) The total lysates were prepared by washing the cells once with cold PBS (pH 7.4) and denatured by adding loading buffer (30 mmol.L⁻¹ Tris HCl, pH 6.8, 1% glycerol, 5% SDS, 50 mmol.L⁻¹ DTT and 0.05% bromophenol blue). The total lysates or the immunoprecipitates were incubated for 10 minutes at 90° C. and then loaded onto 10% acrylamide gel for separation by electrophoresis (SDS-PAGE).
OB-RGRP was tagged with YFP at its C-terminal tail and expressed in HeLa cells. The proteins were separated by polyacrylamide gel electrophoresis under denaturing conditions (SDS-PAGE) and immunoblotting experiments were carried out with an anti-YFP antibody. […]

[6] = target: the molecule itself; experiment: anti-myc immunoprecipitation, SDS-PAGE and anti-myc blot; self-association
OB-RGRP-Luc [7] = target: B6; experiment: BRET in living HEK cells, equimolar coexpression
Experimental: as §3
as §1, with “The BRET ratio was defined as the difference in emission at 530 nm/485 nm of the cells cotransfected with the Luc and YFP fusion proteins and the emission at 530 nm/485 nm of the Luc fusion protein transfected alone into the cells.” left out, “1000. […]” for “1000.”

[8] = target: the molecule itself; experiment: SDS-PAGE and anti-YFP immunoblot; self-association
Experimental: as §4, §5

leptin (ligand)
activation of a luciferase reporter gene under STAT3-response elements, EC50 (OB-Rl): 0.05 nM
activation of a luciferase reporter gene under STAT5-response elements, EC50 (OB-Rl): 0.05 nM
increase in the basal activation of the reporter gene for STAT3 (OB-Rl): 1.5 fold

B1
binding result [1]: no binding

B2
binding result [2]: no binding

B3
binding result [2]: no binding
binding result (OB-RGRP-Luc [3]): binds
binding result [4]: no binding
binding result [5]: binds

B4
binding result [6]: binds

B5
binding result (OB-RGRP-Luc [7]): binds
binding result [8]: binds

B6
binding result [1]: no binding
